Experimental findings from US20040175720A1 (NEW YORK UNIVERSITY, published 2004) are described below.

The target of assay [1] is Human NRC expressed from pEX-NRC in HeLa cells (human, UniProt Q14686 1-2063). The assay is described as follows: cell-based or functional assay.
Assay [2] addresses T1, LexA-NRC-b (LexA DBD fused to NRC amino acids 849-2063), bait of the two-hybrid screen (UniProt P0A7C2 1-202; Q14686 849-2063).
T1 construct: domain: LexA DBD;range 849-2063
Put plainly: yeast two-hybrid, LexA-NRC fusions against B42-NIF-1 constructs (FIG. 6A). An excerpt: Cell. Biol. 20:5048-5063 (2000), which is hereby incorporated by reference in its entirety). The yeast strain EGY48 harboring the LacZ reporter pSH1 8-34 (Gyuris et al., “Cdi1, A Human G1 and S Phase Protein Phosphatase that Associates with Cdk2,” Cell 75:791-803 (1993), which is hereby incorporated by reference in its entirety), and pEG202ΔPL-NRC-b was transformed with the GH4C1 pJG4-5 cDNA library. Transformants were directly screened on X-gal SD-galactose-raffinose plates lacking trp, ura, his, and leu. Putative positive clones were further purified on trp⁻, ura⁻, his⁻, and leu⁻ SD-galactose-raffinose plates. The purified clones were plated on SD-dextrose/trp⁻, ura^{-,} his⁻ plates to repress the expression of cDNAs from pJG4-5. Galactose-inducible interactions were verified upon replica plating each clone on trp⁻, ura⁻, his⁻, leu⁻ X-gal SD-galactose-raffinose and trp⁻, ura⁻, his⁻ X-gal SD-dextrose plates. […] The putative cDNAs from positive clones were further verified against several different baits. The positive interactors were then sequenced and subjected to restriction digestion, size determination, and further analysis.
Various regions of NRC were expressed as LexA fusions in yeast (designated as rows “a-g” in FIG. 6A) and their interaction compared with full-length NIF-1, NIF-2, and various deletions of NIF-1 conditionally expressed from pJG4-5. […]

Chain of Human NRC expressed from pEX-NRC in HeLa cells (Q14686 whole entry, the tested form may be a part): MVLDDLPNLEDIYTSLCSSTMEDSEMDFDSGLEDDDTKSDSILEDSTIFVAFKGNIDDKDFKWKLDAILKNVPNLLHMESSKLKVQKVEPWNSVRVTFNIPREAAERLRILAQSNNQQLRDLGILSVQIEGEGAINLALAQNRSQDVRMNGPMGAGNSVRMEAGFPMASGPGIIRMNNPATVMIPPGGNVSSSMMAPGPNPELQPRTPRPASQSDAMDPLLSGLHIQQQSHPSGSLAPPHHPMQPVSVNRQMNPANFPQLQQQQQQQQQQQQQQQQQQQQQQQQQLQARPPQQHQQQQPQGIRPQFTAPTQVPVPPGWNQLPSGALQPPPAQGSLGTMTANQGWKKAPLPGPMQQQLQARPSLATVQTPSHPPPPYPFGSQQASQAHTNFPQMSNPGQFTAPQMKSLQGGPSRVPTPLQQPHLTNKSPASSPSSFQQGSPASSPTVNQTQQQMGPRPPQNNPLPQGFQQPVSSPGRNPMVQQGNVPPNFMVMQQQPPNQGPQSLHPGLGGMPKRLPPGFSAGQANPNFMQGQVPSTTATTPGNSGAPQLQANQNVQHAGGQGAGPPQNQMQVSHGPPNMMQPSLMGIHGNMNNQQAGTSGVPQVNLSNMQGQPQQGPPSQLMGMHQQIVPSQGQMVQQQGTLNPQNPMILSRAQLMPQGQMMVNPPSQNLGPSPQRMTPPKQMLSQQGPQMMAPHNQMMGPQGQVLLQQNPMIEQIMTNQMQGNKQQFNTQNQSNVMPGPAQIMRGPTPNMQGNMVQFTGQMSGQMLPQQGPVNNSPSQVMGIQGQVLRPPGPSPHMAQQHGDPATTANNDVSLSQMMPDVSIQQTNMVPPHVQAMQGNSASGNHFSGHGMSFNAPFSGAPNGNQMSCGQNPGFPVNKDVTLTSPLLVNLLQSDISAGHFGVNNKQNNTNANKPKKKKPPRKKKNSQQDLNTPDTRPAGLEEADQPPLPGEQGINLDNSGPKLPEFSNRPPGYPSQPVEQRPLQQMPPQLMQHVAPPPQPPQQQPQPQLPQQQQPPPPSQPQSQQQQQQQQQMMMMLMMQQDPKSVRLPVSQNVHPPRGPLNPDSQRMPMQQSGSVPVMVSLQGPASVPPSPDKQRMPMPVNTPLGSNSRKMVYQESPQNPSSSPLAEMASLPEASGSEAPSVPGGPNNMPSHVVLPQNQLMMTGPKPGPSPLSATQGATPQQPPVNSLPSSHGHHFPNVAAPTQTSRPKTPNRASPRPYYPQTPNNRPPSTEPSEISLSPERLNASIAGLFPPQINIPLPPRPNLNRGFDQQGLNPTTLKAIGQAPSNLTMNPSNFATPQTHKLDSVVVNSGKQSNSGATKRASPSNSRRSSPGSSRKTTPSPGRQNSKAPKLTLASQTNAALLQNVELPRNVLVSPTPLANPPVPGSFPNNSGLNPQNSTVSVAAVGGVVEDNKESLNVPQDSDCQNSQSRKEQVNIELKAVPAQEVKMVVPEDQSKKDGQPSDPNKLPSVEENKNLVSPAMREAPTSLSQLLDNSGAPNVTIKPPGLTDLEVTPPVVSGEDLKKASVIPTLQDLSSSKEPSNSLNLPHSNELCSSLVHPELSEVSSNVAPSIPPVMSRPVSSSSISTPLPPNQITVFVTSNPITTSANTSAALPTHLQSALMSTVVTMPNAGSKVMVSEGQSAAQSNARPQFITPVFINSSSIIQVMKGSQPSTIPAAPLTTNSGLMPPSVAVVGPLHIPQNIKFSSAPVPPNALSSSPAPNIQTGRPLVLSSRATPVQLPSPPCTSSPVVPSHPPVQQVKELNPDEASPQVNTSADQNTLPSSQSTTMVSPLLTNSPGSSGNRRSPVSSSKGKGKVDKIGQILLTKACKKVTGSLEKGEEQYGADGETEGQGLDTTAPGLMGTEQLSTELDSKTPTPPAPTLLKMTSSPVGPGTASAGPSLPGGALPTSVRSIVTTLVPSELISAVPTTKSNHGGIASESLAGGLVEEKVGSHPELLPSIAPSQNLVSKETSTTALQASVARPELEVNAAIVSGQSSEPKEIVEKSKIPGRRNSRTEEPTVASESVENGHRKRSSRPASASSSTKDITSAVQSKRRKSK

B1: NIF-1 (NRC Interacting Factor-1), full-length human, untagged (other)
chain: MEENEVESSSDAAPGPGRPEEPSESGLGVGTSEAVSADSSDAAAAPGQAEADDSGVGQSSDRGSRSQEEVSESSSSADPLPNSYLPDSSSVSHGPVAGVTGGPPALVHSSALPDPNMLVSDCTASSSDLGSAIDKIIESTIGPDLIQNCITVTSAEDGGAETTRYLILQGPDDGAPMTSPMSSSTLAHSLAAIEALADGPTSTSTCLEAQGGPSSPVQLPPASGAEEPDLQSLEAMMEVVVVQQFKCKMCQYRSSTKATLLRHMRERHFRPVAAAAAAAGKKGRLRKWSTSTKSQEEEGPEEEDDDDIVDAGAIDDLEEDSDYNPAEDEPRGRQLRLQRPTPSTPRPRRRPGRPRKLPRLEISDLPDGVEGEPLVSSQSGQSPPEPQDPEAPSSSGPGHLVAMGKVSRTPVEAGVSQSDAENAAPSCPDEHDTLPRRRGRPSRRFLGKKYRKYYYKSPKPLLRPFLCRICGSRFLSHEDLRFHVNSHEAGDPQLFKCLQCSYRSRRWSSLKEHMFNHVGSKPYKCDECSYTSVYRKDVIRHAAVHSRDRKKRPDPTPKLSSFPCPVCGRVYPMQKRLTQHMKTHSTEKPHMCDKCGKSFKKRYTFKMHLLTHIQAVANRRFKCEFCEFVCEDKKALLNHQLSHVSDKPFKCSFCPYRTFREDFLLSHVAVKHTGAKPFACEYCHFSTRHKKNLRLHVRCRHASSFEEWGRRHPEEPPSRRRPFFSLQQIEELKQQHSAAPGPPPSSPGPPEIPPEATTFQSSEAPSLLCSDTLGGATIIYQQGAEESTAMATQTALDLLLNMSAQRELGGTALQVAVVKSEDVEAGLASPGGQPSPEGATPQVVTLHVAEPGGGAAAESQLGPPDLPQITLAPGPFGGTGYSVITAPPMEEGTSAPGTPYSEEPAGEAAQAVVVSDTLKEAGTHYIMATDGTQLHHIELTADGSISFPSPDALASGAKWPLLQCGGLPRDGPEPPSPAKTHCVGDSQSSASSPPATSKALGLAVPPSPPSAATAASKKFSCKICAEAFPGRAEMESHKRAHAGPGAFKCPDCPFSARQWPEVRAHMAQHSSLRPHQCSQCSFASKNKKDLRRHMLTHTKEKPFACHLCGQRFNRNGHLKFHIQRLHSPDGRKSGTPTARAPTQTPTQTIILNSDDETLATLHTALQSSHGVLGPERLQQALSQEHIIVAQEQTVTNQEEAAYIQEITTADGQTVQHLVTSDNQVQYIISQDGVQHLLPQEYVVVPEGHHIQVQEGQITHIQYEQGAPFLQESQIQYVPVSPGQQLVTQAQLEAAAHSAVTAVADAAMAQAQGLFGTDETVPEHIQQLQHQGIEYDVITLADD
modifications: ^35S-L-methionine label in the in vitro binding assay
For B1, in assay [1], the “activity of the -73 collagenase-CAT reporter gene in HeLa cells (fold increase)” value came out at 12 fold.

B2: B42-NIF-1 (full-length), B42 activation domain fusion expressed from pJG4-5 in yeast (other, not shown: large carriers)
chain: MEENEVESSSDAAPGPGRPEEPSESGLGVGTSEAVSADSSDAAAAPGQAEADDSGVGQSSDRGSRSQEEVSESSSSADPLPNSYLPDSSSVSHGPVAGVTGGPPALVHSSALPDPNMLVSDCTASSSDLGSAIDKIIESTIGPDLIQNCITVTSAEDGGAETTRYLILQGPDDGAPMTSPMSSSTLAHSLAAIEALADGPTSTSTCLEAQGGPSSPVQLPPASGAEEPDLQSLEAMMEVVVVQQFKCKMCQYRSSTKATLLRHMRERHFRPVAAAAAAAGKKGRLRKWSTSTKSQEEEGPEEEDDDDIVDAGAIDDLEEDSDYNPAEDEPRGRQLRLQRPTPSTPRPRRRPGRPRKLPRLEISDLPDGVEGEPLVSSQSGQSPPEPQDPEAPSSSGPGHLVAMGKVSRTPVEAGVSQSDAENAAPSCPDEHDTLPRRRGRPSRRFLGKKYRKYYYKSPKPLLRPFLCRICGSRFLSHEDLRFHVNSHEAGDPQLFKCLQCSYRSRRWSSLKEHMFNHVGSKPYKCDECSYTSVYRKDVIRHAAVHSRDRKKRPDPTPKLSSFPCPVCGRVYPMQKRLTQHMKTHSTEKPHMCDKCGKSFKKRYTFKMHLLTHIQAVANRRFKCEFCEFVCEDKKALLNHQLSHVSDKPFKCSFCPYRTFREDFLLSHVAVKHTGAKPFACEYCHFSTRHKKNLRLHVRCRHASSFEEWGRRHPEEPPSRRRPFFSLQQIEELKQQHSAAPGPPPSSPGPPEIPPEATTFQSSEAPSLLCSDTLGGATIIYQQGAEESTAMATQTALDLLLNMSAQRELGGTALQVAVVKSEDVEAGLASPGGQPSPEGATPQVVTLHVAEPGGGAAAESQLGPPDLPQITLAPGPFGGTGYSVITAPPMEEGTSAPGTPYSEEPAGEAAQAVVVSDTLKEAGTHYIMATDGTQLHHIELTADGSISFPSPDALASGAKWPLLQCGGLPRDGPEPPSPAKTHCVGDSQSSASSPPATSKALGLAVPPSPPSAATAASKKFSCKICAEAFPGRAEMESHKRAHAGPGAFKCPDCPFSARQWPEVRAHMAQHSSLRPHQCSQCSFASKNKKDLRRHMLTHTKEKPFACHLCGQRFNRNGHLKFHIQRLHSPDGRKSGTPTARAPTQTPTQTIILNSDDETLATLHTALQSSHGVLGPERLQQALSQEHIIVAQEQTVTNQEEAAYIQEITTADGQTVQHLVTSDNQVQYIISQDGVQHLLPQEYVVVPEGHHIQVQEGQITHIQYEQGAPFLQESQIQYVPVSPGQQLVTQAQLEAAAHSAVTAVADAAMAQAQGLFGTDETVPEHIQQLQHQGIEYDVITLADD
notes: also called NIF-1 expressed as a B42-fusion
For the molecule B2, in assay [2], the binding result is reported as “binds”.
